Measured values published in patent publication US20230029307A1.

Target: rhVEGF165 (R&D Systems, Cat #293-VE-010) (human) (UniProt P15692)
Experiment: cell-based or functional assay

Chain of rhVEGF165 (R&D Systems, Cat #293-VE-010) (human) (P15692 other isoform, or with tags, fused parts or gaps limits assumed): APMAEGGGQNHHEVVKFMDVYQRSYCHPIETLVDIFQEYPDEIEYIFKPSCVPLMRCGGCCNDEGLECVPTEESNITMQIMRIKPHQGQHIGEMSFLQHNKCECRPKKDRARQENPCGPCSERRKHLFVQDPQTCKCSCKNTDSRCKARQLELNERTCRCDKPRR

Aflibercept (EYLEA) (from UniProt P17948 129-230; P35968 225-327) (Fc fusion)
maximal % inhibition of VEGF-stimulated BCEC proliferation: < 80%
